In patent publication US20030078191A1 one finds beta-galactosidase (lacZ reporter) activity, MUG fluorescence, yeast two-hybrid data, which are given here for 1 substance.

Common to all, as to assay: cell-based or functional assay
The target in assay [1] is Gal4ad-ZipA(185-328) fusion (pGAD424 fusion) (Escherichia coli) (UniProt P77173).
Assay [2] deals with Gal4ad-ZipA(35-185) fusion (pGAD424 fusion) (Escherichia coli).
For assay [3], the target named is Gal4 activation domain alone (pGAD424 vector, no fusion) (UniProt P04386).
For assay [4], the target named is Gal4ad-ZipA(62-328) fusion (pGAD424 fusion) (Escherichia coli).
The target in assay [5] is Gal4ad-ZipA(35-284) fusion (pGAD424 fusion) (Escherichia coli).
Assay [6] addresses Gal4ad-ZipA(185-302) fusion (pGAD424 fusion) (Escherichia coli).

Chain of Gal4ad-ZipA(35-185) fusion (pGAD424 fusion) (Escherichia coli) (P04386 768-881): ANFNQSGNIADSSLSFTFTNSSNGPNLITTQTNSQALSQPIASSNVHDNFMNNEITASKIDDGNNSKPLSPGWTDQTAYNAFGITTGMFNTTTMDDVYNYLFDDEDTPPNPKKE
Chain of Gal4ad-ZipA(185-302) fusion (pGAD424 fusion) (Escherichia coli) (P04386 768-881): as above
Chain of Gal4 activation domain alone (pGAD424 vector, no fusion) (P04386 768-881 limits assumed): as the sequence (P04386 768-881) above
Chain of Gal4ad-ZipA(35-284) fusion (pGAD424 fusion) (Escherichia coli) (P04386 768-881): as above
Chain of Gal4ad-ZipA(62-328) fusion (pGAD424 fusion) (Escherichia coli) (P04386 768-881): as above

Take “Gal4 DNA-binding domain alone (pAS2-1 vector, no fusion) (from UniProt P04386 1-147)”: the beta-galactosidase (lacZ reporter) activity, MUG fluorescence, yeast two-hybrid in assay [1] came to 877 units; in assay [2] it was 930 units; in assay [3], 621 units; in assay [4], 743 units; in assay [5], 832 units; in assay [6] it was 1120 units.
